Numbering of substitutions follows the chain as printed.
Legend:
[1] = target: T1, cynomolgus TNFR2 on cells (cynomolgus); experiment: flow cytometry on cynomolgus PBMC, antibody at 10 ug/mL, anti-human Fc-PE secondary
T1 construct: whole, on cells; also called cynomolgus TNFR2 on CD4+ and CD8+ T cells
Method: Cynomolgus peripheral blood mononuclear cells (PBMCs) from two independent donors were isolated by diluting whole blood (SNBL USA) 1:1 in PBS (Lonza), layering over Ficoll-Paque Plus (GE Healthcare), and centrifuging for 35 minutes at 400×g. The PBMC fraction was removed, washed 3 times in 2% FBS PBS and counted. 0.3×10⁶ PBMC were resuspended in Fixable Viability Stain 575V (BD) diluted 1:1000 in PBS and incubated for 10 minutes. PBMC were then washed twice in PBS to remove residual viability stain, resuspended in Horizon Brilliant Stain Buffer (BD) with 10 uL per test of human Fc receptor binding inhibitor (eBioscience), and incubated on ice for 20 minutes to block Fc receptors. […] PBMC were incubated 20 minutes on ice and then washed three times with 2% FBS PBS. To visualize TNFR2 chimeric antibody binding, PBMC were resuspended in goat anti-human Fc-PE F(ab′)₂ secondary reagent (Jackson ImmunoResearch) diluted 1:200 in 2% FBS PBS and incubated on ice for 20 minutes. Cells were then washed three times in 2% FBS PBS and resuspended in 200 uL 2% FBS PBS for flow cytometry analysis using a BD FACS Celesta instrument and FACS Diva software. T cells were analyzed for chimeric TNFR2 binding by gating on viable cells defined as lymphocytes using forward and side scatter and as T cells by anti-CD3 staining. CD4⁺ and CD8⁺ subsets were identified using commercial specific antibody conjugates.

[2] = target: T2, soluble cynomolgus TNFR2 (cynomolgus, UniProt A0A2K5VET2 132-366); experiment: competition ELISA: plate-bound soluble cynomolgus TNFR2, competitor biotinylated TNFα, streptavidin-HRP, A450
T2 sequence: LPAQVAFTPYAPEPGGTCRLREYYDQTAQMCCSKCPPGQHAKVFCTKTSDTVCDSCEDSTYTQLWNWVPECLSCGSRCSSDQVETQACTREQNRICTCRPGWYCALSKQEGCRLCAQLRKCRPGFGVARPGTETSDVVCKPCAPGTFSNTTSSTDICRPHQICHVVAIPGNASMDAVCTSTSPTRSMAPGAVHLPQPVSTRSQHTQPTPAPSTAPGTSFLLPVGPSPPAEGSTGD
Method: (§1) Soluble human TNFR2 (Sino Biological, 10417-H08H) or cynomolgus TNFR2 (Sino Biological, 90102-C08H) was coated on Nunc-Immuno™ plates at 0.1 μg/ml, 0.5 ug/ml, 1 μg/ml, and 5 μg/ml. […] Plates were developed using TMB and stopped with 3 M HCl.

[3] = target: T3, soluble human TNFR2 (human, UniProt P20333 23-257); experiment: competition ELISA: plate-bound soluble human TNFR2, competitor biotinylated TNFα; IC50 relative to unlabelled TNFα = 1.00
T3 construct: also called soluble TNFR2
T3 sequence (looked up): T2 sequence with G16S, P36S, Q117P, H164N, A210E, G216S, V223M
Method: as §1

[4] = target: T4, monomeric cynomolgus TNFR2 extracellular domain (cynomolgus monkey, UniProt A0A2K5VET2 132-366); experiment: BLI (Octet Red 96), antibody captured on Fc biosensor, monomeric TNFR2 ECD in solution, 1:1 model
T4 construct: extracellular domain; Analyte in the Octet experiments; also called cynomolgus TNFR2 ECD; Cyno TNFR2
T4 sequence: T2 sequence

[5] = target: T5, monomeric human TNFR2 extracellular domain (human, UniProt P20333 23-257); experiment: as above
T5 construct: extracellular domain; Analyte in the Octet experiments; also called human TNFR2 ECD
T5 sequence (looked up): T2 sequence with G16S, P36S, Q117P, H164N, A210E, G216S, V223M

B1: chimeric SBT-002 (antibody, V domains shown)
VH: QVTLKESGPGILQPSQTLSLTCSFSGFSLSTSGMGVGWIRQPSGKGLEWLAHIWWDDDKFYNPSLKSQLTISKDTSRNQVFLKLTSVVTADTATYYCARLTGTRYFDYWGQGTTLTVSS
VL: DVQMTQSPSSLSASLGGKVTITCKASQDINKFIAWYQHKPGKGPRLLIHYTSTLQPGIPSKFSGSGSGRDYSFSISNLEPEDIATYYCLQYGNLWTFGGGTKLEIT
notes: also called chSBT-002
% CD4^+ ab^+ Donor 1 [1]: 9%
% CD4^+ ab^+ Donor 2 [1]: 14.1%
% CD8^+ ab^+ Donor 1 [1]: 9.5%
% CD8^+ ab^+ Donor 2 [1]: 29%
IC50 [2]: 27.6 nM
Relative IC50 [3]: 3.03 nM
Kd [4]: 0.62 nM
Kd [5]: 0.8 nM

B2: chimeric SBT-004 (antibody, V domains shown)
VH: EVQLQQSGPEVGRPGSSVKISCKASGYTFTDYIMHWVKQSPGQGLEWIGWVDPEYGSTDYAEKFKKKATLTADTSSNTAYIQLSSLTSEDTATYFCARDDGSYSPFDYWGQGVMVTVSS
VL: DIQMTQSPPSLSASLGDKVTITCQASQNINKYIAWYQQKPGKAPRLLIRYTSTLESGTPSRFSGSGSGRDYSFSISNVESEDIASYYCLQYVNLLTFGAGTKLEIK
notes: VH fused to a human IgG1 Fc domain; also called chSBT-004
% CD4^+ ab^+ Donor 1 [1]: 10.2%
% CD4^+ ab^+ Donor 2 [1]: 7.6%
% CD8^+ ab^+ Donor 1 [1]: 11.2%
% CD8^+ ab^+ Donor 2 [1]: 18.4%
IC50 [2]: 31 nM
Relative IC50 [3]: 6.72 nM
Kd [4]: 3.4 nM
Kd [5]: 3.6 nM

Reference: US20190202925A1 (OPI VI IP HOLDCO, published 2019)
